These results are taken from publication PMC5401896 (2017).

Assay [1] concerns the target T1, CD20 (Homo sapiens, UniProt P11836).
T1 chain: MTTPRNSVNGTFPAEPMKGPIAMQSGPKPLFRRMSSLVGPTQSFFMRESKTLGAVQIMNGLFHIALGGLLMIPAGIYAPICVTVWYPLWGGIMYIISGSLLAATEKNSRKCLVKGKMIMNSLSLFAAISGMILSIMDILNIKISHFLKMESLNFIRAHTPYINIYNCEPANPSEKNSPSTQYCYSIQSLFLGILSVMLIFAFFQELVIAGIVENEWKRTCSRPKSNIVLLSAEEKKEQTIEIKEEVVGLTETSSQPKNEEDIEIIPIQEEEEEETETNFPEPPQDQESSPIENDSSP
Briefly: real-time cell binding (one-to-one, Ramos).

Assay [2] deals with T1, CD20. Nature of the assay: real-time cell binding (one-to-two, Daudi).
The target of assay [3] is T1, CD20. Briefly: real-time cell binding (bivalent, Daudi).

B1: Rituximab (antibody, V domains shown)
VH: QVQLQQPGAELVKPGASVKMSCKASGYTFTSYNMHWVKQTPGRGLEWIGAIYPGNGDTSYNQKFKGKATLTADKSSSTAYMQLSSLTSEDSAVYYCARSTYYGGDWYFNVWGAGTTVTVSA
VL: QIVLSQSPAILSASPGEKVTMTCRASSSVSYIHWFQQKPGSSPKPWIYATSNLASGVPVRFSGSGSGTSYSLTISRVEAEDAATYYCQQWTSNPPTFGGGTKLEIK
On to B1, for which the Kd was 0.7 nM in assay [1], 0.2 nM in assay [2] and 7.8 nM in assay [3].
